Reference: patent US20230227545A1 (published 2023)

Tests used:
human IL-1β [1] = molecular target: T1, human IL-1β (human, UniProt P01584 117-269); assay: cell-based or functional assay
pig IL-1β = molecular target: T2, pig IL-1β (pig, UniProt P26889 115-267); assay: SPR, Biacore 8K, mAb captured on anti-human Fc chip, soluble IL-1β as analyte
T2 construct: also called pig IL-β
T2 sequence (looked up): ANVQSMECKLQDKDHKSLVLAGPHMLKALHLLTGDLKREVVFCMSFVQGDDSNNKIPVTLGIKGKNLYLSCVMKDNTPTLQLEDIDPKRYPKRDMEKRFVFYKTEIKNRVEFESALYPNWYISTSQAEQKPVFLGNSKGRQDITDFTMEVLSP
Experimental: (§1) Affinity assessment of 05H21A, 15N14A, and 08F17A against human IL-1β was performed by Surface Plasmon Resonance (SPR) using a Biacore 8k. Cross-reactivity of the same antibody panel was also assessed against cyno, mouse, rat and pig IL-1β.
(§2) SPR is a label-free technique to study the strength of an interaction between two binding partners by measuring the change in mass upon complex formation and dissociation. Briefly, antibodies were immobilized on a sensor chip which was coupled with goat anti-human Fc (GAH-Fc C1 sensor chip). Soluble IL-1β was flowed over the immobilized antibody and association/dissociation responses were monitored. Kinetic information (on-rate and off-rate constants) were extracted by fitting sensorgrams to the 1:1 Langmuir model. Binding affinity (KD) were reported as the ratio of rate constants (koff/kₒₙ).

mouse IL-1β = molecular target: T3, mouse IL-1β (mouse, UniProt P10749 118-269); assay: as above
T3 construct: also called mouse IL-β
T3 sequence (looked up): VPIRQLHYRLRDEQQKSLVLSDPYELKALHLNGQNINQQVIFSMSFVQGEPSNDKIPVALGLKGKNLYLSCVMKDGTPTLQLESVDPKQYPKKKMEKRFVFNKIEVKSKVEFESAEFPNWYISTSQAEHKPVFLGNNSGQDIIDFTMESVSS
Experimental: as §1, §2

human IL-1β [2] = molecular target: T1, human IL-1β; assay: cell-based or functional assay; remark: listed apart in the source
cynomolgus IL-1β [3] = molecular target: T4, cynomolgus IL-1β (cynomolgus macaque, UniProt P79182 117-268); assay: cell-based or functional assay
T4 sequence (looked up): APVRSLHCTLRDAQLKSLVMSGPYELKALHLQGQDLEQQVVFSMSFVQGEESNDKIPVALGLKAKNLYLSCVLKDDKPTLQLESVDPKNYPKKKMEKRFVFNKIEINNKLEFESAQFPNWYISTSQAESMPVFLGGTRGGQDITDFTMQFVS

human IL-1β [4] = molecular target: T1, human IL-1β; assay: SPR, Biacore 8K, mAb captured on goat anti-human Fc C1 chip, soluble IL-1β as analyte, 1:1 Langmuir fit
Experimental: as §1, §2

cynomolgus IL-1β [5] = molecular target: T4, cynomolgus IL-1β; assay: as above
Experimental: as §1, §2

rat IL-1β = molecular target: T5, rat IL-1β (rat, UniProt Q63264 117-268); assay: as above
T5 construct: also called rat IL-β
T5 sequence (looked up): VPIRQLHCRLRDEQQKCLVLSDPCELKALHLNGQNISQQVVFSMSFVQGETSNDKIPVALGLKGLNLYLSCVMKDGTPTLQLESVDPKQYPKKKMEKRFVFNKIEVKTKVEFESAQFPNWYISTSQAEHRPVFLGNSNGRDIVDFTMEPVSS
Experimental: as §1, §2

human IL-1β [6] = molecular target: T1, human IL-1β; assay: cell-based or functional assay; remark: listed apart in the source

B1: 15N14A (antibody, human IgG1, lambda, V domains shown)
VH: QVQLQESGPGLVKPSETLSLTCTVSGGSISSYYWTWIRQPAGKGLEWIGRIDSSGSSKYNPTLKSRVTMSVDTSKNQFSLKLSSVTAADTAVYYCARGDSGYDWAFDYWGQGTLVTVSS
VL: QAVLTQPSSLSASPGASASLTCTLRSGINVGTYRIYWYQQKPGSPPQYLLSYKSDSDKQQGSGVPSRFSGSKDASANVGILLISGLQSEDEADYYCMIWHSSAWVFGGGTKLTVLG
notes: Lambda light chain; also called 15N14A (anti-IL-1β) mAb [IgG1: YTE]
Human IL-1β [1]
  IC30, inhibition of IL-6 release, human PBMCs (n=5 donors), 10 pM rhIL-1β: 32 pM
  IC30, inhibition of IL-6 release, human PBMCs (n=5 donors), 30 pM rhIL-1β: 75 pM
  IC50, inhibition of IL-6 release, human PBMCs (n=5 donors), 10 pM rhIL-1β: 56 pM
  IC50, inhibition of IL-6 release, human PBMCs (n=5 donors), 30 pM rhIL-1β: 0.12 nM
  IC90, inhibition of IL-6 release, human PBMCs (n=5 donors), 10 pM rhIL-1β: 0.226 nM
  IC90, inhibition of IL-6 release, human PBMCs (n=5 donors), 30 pM rhIL-1β: 0.409 nM
Pig IL-1β
  binding result: no binding
Mouse IL-1β
  binding result: no binding
Human IL-1β [2]
  IC30, inhibition of rhIL-1β-induced CXCL5 release, human whole blood (5 donors): 0.364 nM
  IC30, inhibition of rhIL-1β-induced G-CSF release, human whole blood (5 donors): 0.299 nM
  IC30, inhibition of rhIL-1β-induced IL-6 release, human whole blood (5 donors): 0.36 nM
  IC50, inhibition of rhIL-1β-induced CXCL5 release, human whole blood (5 donors): 0.603 nM
  IC50, inhibition of rhIL-1β-induced G-CSF release, human whole blood (5 donors): 0.52 nM
  IC50, inhibition of rhIL-1β-induced IL-6 release, human whole blood (5 donors): 0.595 nM
  IC90, inhibition of rhIL-1β-induced CXCL5 release, human whole blood (5 donors): 2.24 nM
  IC90, inhibition of rhIL-1β-induced G-CSF release, human whole blood (5 donors): 2.18 nM
  IC90, inhibition of rhIL-1β-induced IL-6 release, human whole blood (5 donors): 2.18 nM
Cynomolgus IL-1β [3]
  IC30, inhibition of G-CSF release, cynomolgus lung fibroblasts (CLF), 15 pM rcynoIL-1β: 0.129 nM
  IC30, inhibition of IL-6 release, cynomolgus dermal fibroblasts (CDF), 5 pM rcynoIL-1β: 93 pM
  IC30, inhibition of IL-6 release, cynomolgus lung fibroblasts (CLF), 15 pM rcynoIL-1β: 0.192 nM
  IC50, inhibition of G-CSF release, cynomolgus lung fibroblasts (CLF), 15 pM rcynoIL-1β: 0.261 nM
  IC50, inhibition of IL-6 release, cynomolgus dermal fibroblasts (CDF), 5 pM rcynoIL-1β: 0.156 nM
  IC50, inhibition of IL-6 release, cynomolgus lung fibroblasts (CLF), 15 pM rcynoIL-1β: 0.376 nM
  IC90, inhibition of G-CSF release, cynomolgus lung fibroblasts (CLF), 15 pM rcynoIL-1β: 1.63 nM
  IC90, inhibition of IL-6 release, cynomolgus dermal fibroblasts (CDF), 5 pM rcynoIL-1β: 0.594 nM
  IC90, inhibition of IL-6 release, cynomolgus lung fibroblasts (CLF), 15 pM rcynoIL-1β: 2.14 nM
Human IL-1β [4]
  Kd: 0.064 nM
  koff: 0.000141 s⁻¹
  kon: 2.2e+06 M⁻¹ s⁻¹
Cynomolgus IL-1β [5]
  Kd: 0.07 nM
  koff: 0.000209 s⁻¹
  kon: 3.01e+06 M⁻¹ s⁻¹
Rat IL-1β
  Kd: 74.5 nM
  koff: 0.0574 s⁻¹
  kon: 771000 M⁻¹ s⁻¹
Human IL-1β [6]
  IC30, inhibition of rhIL-1β-induced cytokine release, NHDF donor 29114: 0.069 nM
  IC30, inhibition of rhIL-1β-induced cytokine release, NHLF donor 34325: 0.128 nM
  IC30, inhibition of rhIL-1β-induced cytokine release, NHLF donor 35234: 0.09 nM
  IC50, inhibition of rhIL-1β-induced cytokine release, NHDF donor 29114: 0.127 nM
  IC50, inhibition of rhIL-1β-induced cytokine release, NHLF donor 34325: 0.253 nM
  IC50, inhibition of rhIL-1β-induced cytokine release, NHLF donor 35234: 0.178 nM
  IC90, inhibition of rhIL-1β-induced cytokine release, NHDF donor 29114: 0.626 nM
  IC90, inhibition of rhIL-1β-induced cytokine release, NHLF donor 34325: 1.48 nM
  IC90, inhibition of rhIL-1β-induced cytokine release, NHLF donor 35234: 1.04 nM
